Measured values reported in publication PMC5416816.
Where two headings read alike, the source gives them in different places.

Columns and labels:
TIA-1 RRM23K [1] = biological target: T1, TIA-1 RRM23K (UniProt P31483-2 93-274); assay: ITC
T1 sequence: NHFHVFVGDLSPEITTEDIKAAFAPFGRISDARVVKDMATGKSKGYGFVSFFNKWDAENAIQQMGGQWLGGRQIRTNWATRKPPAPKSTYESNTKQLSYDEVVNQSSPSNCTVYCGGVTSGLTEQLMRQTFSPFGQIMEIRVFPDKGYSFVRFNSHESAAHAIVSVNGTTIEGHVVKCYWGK

TIA-1 RRM23K [2] = biological target: T1, TIA-1 RRM23K; assay: fluorescence anisotropy
TIA-1 RRM2S = biological target: T2, TIA-1 RRM2S (UniProt P31483-2 95-184); assay: NMR
T2 sequence: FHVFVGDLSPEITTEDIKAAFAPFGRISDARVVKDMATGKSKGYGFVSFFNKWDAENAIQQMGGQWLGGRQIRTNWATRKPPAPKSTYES

TIA-1 RRM23L [3] = biological target: T3, TIA-1 RRM23L (UniProt P31483-2 80-292); assay: NMR
T3 sequence: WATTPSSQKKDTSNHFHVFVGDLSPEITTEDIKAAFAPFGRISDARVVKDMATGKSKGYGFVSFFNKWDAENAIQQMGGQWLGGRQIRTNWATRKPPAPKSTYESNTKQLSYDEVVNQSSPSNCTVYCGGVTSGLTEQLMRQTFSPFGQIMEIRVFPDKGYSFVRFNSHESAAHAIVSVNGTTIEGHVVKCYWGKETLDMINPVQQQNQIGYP

TIA-1 RRM23L [4] = biological target: T3, TIA-1 RRM23L; assay: NMR; remark: listed apart in the source
TIA-1 RRM2L = biological target: T4, TIA-1 RRM2L (UniProt P31483-2 80-188); assay: fluorescence anisotropy
T4 sequence: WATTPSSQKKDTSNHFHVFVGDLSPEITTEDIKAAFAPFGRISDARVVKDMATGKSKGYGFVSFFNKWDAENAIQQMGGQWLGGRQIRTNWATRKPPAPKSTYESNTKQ

TIA-1 RRM23L [5] = biological target: T3, TIA-1 RRM23L; assay: fluorescence anisotropy
TIA-1 RRM23S = biological target: T5, TIA-1 RRM23S (UniProt P31483-2 94-272); assay: fluorescence anisotropy
T5 sequence: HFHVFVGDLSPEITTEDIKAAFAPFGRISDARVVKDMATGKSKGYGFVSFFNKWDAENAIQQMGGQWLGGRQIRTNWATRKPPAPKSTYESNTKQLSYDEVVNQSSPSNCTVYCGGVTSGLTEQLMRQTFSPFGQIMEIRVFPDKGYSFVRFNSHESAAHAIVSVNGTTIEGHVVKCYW

B1: UC-rich RNA (unlabeled) (ssRNA)
RNA: UUUUUACUCC
Kd (TIA-1 RRM23K [1]): 12 ± 2 nM

B2: CT-rich DNA (ssDNA)
DNA: ACTCCTTTTT
Kd (TIA-1 RRM23K [2]): 30 ± 3 nM

B3: TTTTT DNA (ssDNA)
DNA: TTTTT
binding result (TIA-1 RRM2S): binds

B4: 5'thiol TC-rich DNA (ssDNA)
DNA: TTTTTACTCC
modifications: 5' thiol C6 S-S
binding result (TIA-1 RRM23L [3]): binds

B5: UC-rich RNA (ssRNA)
RNA: UUUUUACUCC
Kd (TIA-1 RRM23K [2]): 5 ± 0.3 nM

B6: PROXYL TC-rich DNA (ssDNA)
DNA: TTTTTACTCC
modifications: 5' thiol C6 coupled to PROXYL
binding result (TIA-1 RRM23L [4]): binds

B7: CU-rich RNA (ssRNA)
RNA: ACUCCUUUUU
Kd (TIA-1 RRM2L): 9100 ± 2000 nM | Kd (TIA-1 RRM23K [2]): 130 ± 10 nM | Kd (TIA-1 RRM23L [5]): 130 ± 7 nM | Kd (TIA-1 RRM23S): 6600 ± 700 nM

B8: TC-rich DNA (ssDNA)
DNA: TTTTTACTCC
Kd (TIA-1 RRM23K [2]): 8 ± 1 nM

B9: CU-rich RNA (unlabeled) (ssRNA)
RNA: ACUCCUUUUU
Kd (TIA-1 RRM23K [1]): 70 ± 3 nM
